This note sets out measurements from patent publication EP4692114A1, “CALCITONIN ANALOGUE, AND DERIVATIVE THEREOF AND USE THEREOF” (Hangzhou Sciwind Biosciences Co., Ltd., priority 2023, dated 2024).

Sequences and labels used below:
B1: calcitonin derivative M40 (peptide)
peptide: {C16 diacid-γGlu}-ASQLSTAVLGRLSDELHRLQDYPRTDVGSGSP-NH2
SMILES: CC(C)C[C@H](NC(=O)[C@H](CCCNC(=N)N)NC(=O)CNC(=O)[C@H](CC(C)C)NC(=O)[C@@H](NC(=O)[C@H](C)NC(=O)[C@@H](NC(=O)[C@H](CO)NC(=O)[C@H](CC(C)C)NC(=O)[C@H](CCC(N)=O)NC(=O)[C@H](CO)NC(=O)[C@H](C)NC(=O)CC[C@H](NC(=O)CCCCCCCCCCCCCCC(=O)O)C(=O)O)[C@@H](C)O)C(C)C)C(=O)N[C@@H](CO)C(=O)N[C@@H](CC(=O)O)C(=O)N[C@@H](CCC(=O)O)C(=O)N[C@@H](CC(C)C)C(=O)N[C@@H](Cc1c[nH]cn1)C(=O)N[C@@H](CCCNC(=N)N)C(=O)N[C@@H](CC(C)C)C(=O)N[C@@H](CCC(N)=O)C(=O)N[C@@H](CC(=O)O)C(=O)N[C@@H](Cc1ccc(O)cc1)C(=O)N1CCC[C@H]1C(=O)N[C@@H](CCCNC(=N)N)C(=O)N[C@H](C(=O)N[C@@H](CC(=O)O)C(=O)N[C@H](C(=O)NCC(=O)N[C@@H](CO)C(=O)NCC(=O)N[C@@H](CO)C(=O)N1CCC[C@H]1C(N)=O)C(C)C)[C@@H](C)O
B2: calcitonin derivative M9 (peptide)
peptide: {C20 diacid-γGlu}-ASQLSTAVLGRLSEELHRLQDYPRTDVGSGSP-NH2
SMILES: CC(C)C[C@H](NC(=O)[C@H](CCCNC(=N)N)NC(=O)CNC(=O)[C@H](CC(C)C)NC(=O)[C@@H](NC(=O)[C@H](C)NC(=O)[C@@H](NC(=O)[C@H](CO)NC(=O)[C@H](CC(C)C)NC(=O)[C@H](CCC(N)=O)NC(=O)[C@H](CO)NC(=O)[C@H](C)NC(=O)CC[C@H](NC(=O)CCCCCCCCCCCCCCCCCCC(=O)O)C(=O)O)[C@@H](C)O)C(C)C)C(=O)N[C@@H](CO)C(=O)N[C@@H](CCC(=O)O)C(=O)N[C@@H](CCC(=O)O)C(=O)N[C@@H](CC(C)C)C(=O)N[C@@H](Cc1c[nH]cn1)C(=O)N[C@@H](CCCNC(=N)N)C(=O)N[C@@H](CC(C)C)C(=O)N[C@@H](CCC(N)=O)C(=O)N[C@@H](CC(=O)O)C(=O)N[C@@H](Cc1ccc(O)cc1)C(=O)N1CCC[C@H]1C(=O)N[C@@H](CCCNC(=N)N)C(=O)N[C@H](C(=O)N[C@@H](CC(=O)O)C(=O)N[C@H](C(=O)NCC(=O)N[C@@H](CO)C(=O)NCC(=O)N[C@@H](CO)C(=O)N1CCC[C@H]1C(N)=O)C(C)C)[C@@H](C)O
B3: calcitonin derivative M41 (peptide)
peptide: {C20 diacid}-EASQLSTAVLGRLSDELHRLQDYPRTDVGSGSP-NH2
SMILES: CC(C)C[C@H](NC(=O)[C@H](CCCNC(=N)N)NC(=O)CNC(=O)[C@H](CC(C)C)NC(=O)[C@@H](NC(=O)[C@H](C)NC(=O)[C@@H](NC(=O)[C@H](CO)NC(=O)[C@H](CC(C)C)NC(=O)[C@H](CCC(N)=O)NC(=O)[C@H](CO)NC(=O)[C@H](C)NC(=O)[C@H](CCC(=O)O)NC(=O)CCCCCCCCCCCCCCCCCCC(=O)O)[C@@H](C)O)C(C)C)C(=O)N[C@@H](CO)C(=O)N[C@@H](CC(=O)O)C(=O)N[C@@H](CCC(=O)O)C(=O)N[C@@H](CC(C)C)C(=O)N[C@@H](Cc1c[nH]cn1)C(=O)N[C@@H](CCCNC(=N)N)C(=O)N[C@@H](CC(C)C)C(=O)N[C@@H](CCC(N)=O)C(=O)N[C@@H](CC(=O)O)C(=O)N[C@@H](Cc1ccc(O)cc1)C(=O)N1CCC[C@H]1C(=O)N[C@@H](CCCNC(=N)N)C(=O)N[C@H](C(=O)N[C@@H](CC(=O)O)C(=O)N[C@H](C(=O)NCC(=O)N[C@@H](CO)C(=O)NCC(=O)N[C@@H](CO)C(=O)N1CCC[C@H]1C(N)=O)C(C)C)[C@@H](C)O
B4: calcitonin derivative M19 (peptide)
peptide: {C20 diacid-γGlu}-ASQLSTAVLGRLSQELHRLQDYPRTDVGAGSP-NH2
SMILES: CC(C)C[C@H](NC(=O)[C@H](CCCNC(=N)N)NC(=O)CNC(=O)[C@H](CC(C)C)NC(=O)[C@@H](NC(=O)[C@H](C)NC(=O)[C@@H](NC(=O)[C@H](CO)NC(=O)[C@H](CC(C)C)NC(=O)[C@H](CCC(N)=O)NC(=O)[C@H](CO)NC(=O)[C@H](C)NC(=O)CC[C@H](NC(=O)CCCCCCCCCCCCCCCCCCC(=O)O)C(=O)O)[C@@H](C)O)C(C)C)C(=O)N[C@@H](CO)C(=O)N[C@@H](CCC(N)=O)C(=O)N[C@@H](CCC(=O)O)C(=O)N[C@@H](CC(C)C)C(=O)N[C@@H](Cc1c[nH]cn1)C(=O)N[C@@H](CCCNC(=N)N)C(=O)N[C@@H](CC(C)C)C(=O)N[C@@H](CCC(N)=O)C(=O)N[C@@H](CC(=O)O)C(=O)N[C@@H](Cc1ccc(O)cc1)C(=O)N1CCC[C@H]1C(=O)N[C@@H](CCCNC(=N)N)C(=O)N[C@H](C(=O)N[C@@H](CC(=O)O)C(=O)N[C@H](C(=O)NCC(=O)N[C@@H](C)C(=O)NCC(=O)N[C@@H](CO)C(=O)N1CCC[C@H]1C(N)=O)C(C)C)[C@@H](C)O
B5: calcitonin derivative M23 (peptide)
peptide: {C18 diacid}-DASQLSTAVLGRLSQELHRLQDYPRTDVGSGSP-NH2
SMILES: CC(C)C[C@H](NC(=O)[C@H](CCCNC(=N)N)NC(=O)CNC(=O)[C@H](CC(C)C)NC(=O)[C@@H](NC(=O)[C@H](C)NC(=O)[C@@H](NC(=O)[C@H](CO)NC(=O)[C@H](CC(C)C)NC(=O)[C@H](CCC(N)=O)NC(=O)[C@H](CO)NC(=O)[C@H](C)NC(=O)[C@H](CC(=O)O)NC(=O)CCCCCCCCCCCCCCCCC(=O)O)[C@@H](C)O)C(C)C)C(=O)N[C@@H](CO)C(=O)N[C@@H](CCC(N)=O)C(=O)N[C@@H](CCC(=O)O)C(=O)N[C@@H](CC(C)C)C(=O)N[C@@H](Cc1c[nH]cn1)C(=O)N[C@@H](CCCNC(=N)N)C(=O)N[C@@H](CC(C)C)C(=O)N[C@@H](CCC(N)=O)C(=O)N[C@@H](CC(=O)O)C(=O)N[C@@H](Cc1ccc(O)cc1)C(=O)N1CCC[C@H]1C(=O)N[C@@H](CCCNC(=N)N)C(=O)N[C@H](C(=O)N[C@@H](CC(=O)O)C(=O)N[C@H](C(=O)NCC(=O)N[C@@H](CO)C(=O)NCC(=O)N[C@@H](CO)C(=O)N1CCC[C@H]1C(N)=O)C(C)C)[C@@H](C)O
B6: calcitonin derivative M24 (peptide)
peptide: {C18 diacid}-EASQLSTAVLGRLSQELHRLQDYPRTDVGSGSP-NH2
SMILES: CC(C)C[C@H](NC(=O)[C@H](CCCNC(=N)N)NC(=O)CNC(=O)[C@H](CC(C)C)NC(=O)[C@@H](NC(=O)[C@H](C)NC(=O)[C@@H](NC(=O)[C@H](CO)NC(=O)[C@H](CC(C)C)NC(=O)[C@H](CCC(N)=O)NC(=O)[C@H](CO)NC(=O)[C@H](C)NC(=O)[C@H](CCC(=O)O)NC(=O)CCCCCCCCCCCCCCCCC(=O)O)[C@@H](C)O)C(C)C)C(=O)N[C@@H](CO)C(=O)N[C@@H](CCC(N)=O)C(=O)N[C@@H](CCC(=O)O)C(=O)N[C@@H](CC(C)C)C(=O)N[C@@H](Cc1c[nH]cn1)C(=O)N[C@@H](CCCNC(=N)N)C(=O)N[C@@H](CC(C)C)C(=O)N[C@@H](CCC(N)=O)C(=O)N[C@@H](CC(=O)O)C(=O)N[C@@H](Cc1ccc(O)cc1)C(=O)N1CCC[C@H]1C(=O)N[C@@H](CCCNC(=N)N)C(=O)N[C@H](C(=O)N[C@@H](CC(=O)O)C(=O)N[C@H](C(=O)NCC(=O)N[C@@H](CO)C(=O)NCC(=O)N[C@@H](CO)C(=O)N1CCC[C@H]1C(N)=O)C(C)C)[C@@H](C)O
B7: calcitonin derivative M57 (peptide)
peptide: {C20 diacid-γGlu-AEEA-AEEA}-ASQLSTAVLGRLSEELHRLQDYPRTDVGSGSP-NH2
SMILES: CC(C)C[C@H](NC(=O)[C@H](CCCNC(=N)N)NC(=O)CNC(=O)[C@H](CC(C)C)NC(=O)[C@@H](NC(=O)[C@H](C)NC(=O)[C@@H](NC(=O)[C@H](CO)NC(=O)[C@H](CC(C)C)NC(=O)[C@H](CCC(N)=O)NC(=O)[C@H](CO)NC(=O)[C@H](C)NC(=O)COCCOCCNC(=O)COCCOCCNC(=O)CC[C@H](NC(=O)CCCCCCCCCCCCCCCCCCC(=O)O)C(=O)O)[C@@H](C)O)C(C)C)C(=O)N[C@@H](CO)C(=O)N[C@@H](CCC(=O)O)C(=O)N[C@@H](CCC(=O)O)C(=O)N[C@@H](CC(C)C)C(=O)N[C@@H](Cc1c[nH]cn1)C(=O)N[C@@H](CCCNC(=N)N)C(=O)N[C@@H](CC(C)C)C(=O)N[C@@H](CCC(N)=O)C(=O)N[C@@H](CC(=O)O)C(=O)N[C@@H](Cc1ccc(O)cc1)C(=O)N1CCC[C@H]1C(=O)N[C@@H](CCCNC(=N)N)C(=O)N[C@H](C(=O)N[C@@H](CC(=O)O)C(=O)N[C@H](C(=O)NCC(=O)N[C@@H](CO)C(=O)NCC(=O)N[C@@H](CO)C(=O)N1CCC[C@H]1C(N)=O)C(C)C)[C@@H](C)O

*1 amine or outer side, *2 acyl side, *3 side chain or, on linkers, in order; H or OH if unused. The star is where a group is joined. C20 diacid = O=C(O)CCCCCCCCCCCCCCCCCCC(=O)*; C18 diacid = O=C(O)CCCCCCCCCCCCCCCCC(=O)*; C16 diacid = O=C(O)CCCCCCCCCCCCCCC(=O)*; γGlu = O=C(O)[C@H](CCC(=O)[*:2])N[*:1]; AEEA = NCCOCCOCC(=O)O

The target of the test is T1, human amylin receptor (AMY3) on CHO-K1/Gal5/AMY3 cells (human, UniProt P30988 25-474; O60896 24-148).
T1 sequence (looked up) 1: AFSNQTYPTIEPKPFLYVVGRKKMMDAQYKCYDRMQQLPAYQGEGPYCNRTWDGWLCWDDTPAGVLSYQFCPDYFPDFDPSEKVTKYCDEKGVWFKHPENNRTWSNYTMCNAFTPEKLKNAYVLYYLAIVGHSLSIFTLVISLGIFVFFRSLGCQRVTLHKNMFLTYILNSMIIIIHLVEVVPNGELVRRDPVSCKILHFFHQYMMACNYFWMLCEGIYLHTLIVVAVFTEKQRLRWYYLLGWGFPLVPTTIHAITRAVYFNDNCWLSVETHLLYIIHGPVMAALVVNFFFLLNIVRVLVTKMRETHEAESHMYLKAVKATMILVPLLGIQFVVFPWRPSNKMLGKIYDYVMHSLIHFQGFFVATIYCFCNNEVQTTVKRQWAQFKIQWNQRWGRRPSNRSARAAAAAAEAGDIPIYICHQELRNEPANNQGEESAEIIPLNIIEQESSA
T1 sequence (looked up) 2: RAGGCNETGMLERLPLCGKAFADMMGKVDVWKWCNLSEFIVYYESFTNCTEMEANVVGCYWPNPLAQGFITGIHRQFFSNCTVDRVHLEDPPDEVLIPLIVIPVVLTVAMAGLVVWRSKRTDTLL
The experiment in a line: cell-based or functional assay.
In the case of B1, the “EC50/nM, CRE-luciferase in amylin receptor/CRE-luc CHO cells” value was 0.002 nM.
On to B2, for which the “EC50/nM, CRE-luciferase in amylin receptor/CRE-luc CHO cells” value turned out to be 0.017 nM.
For the molecule B3, the “EC50/nM, CRE-luciferase in amylin receptor/CRE-luc CHO cells” value amounted to 0.069 nM.
Take B4: the “EC50/nM, CRE-luciferase in amylin receptor/CRE-luc CHO cells” value amounted to 0.016 nM.
Turning to B5, the “EC50/nM, CRE-luciferase in amylin receptor/CRE-luc CHO cells” value was 0.01 nM.
Turning to B6, the “EC50/nM, CRE-luciferase in amylin receptor/CRE-luc CHO cells” value was determined as 0.016 nM.
Regarding B7, the “EC50/nM, CRE-luciferase in amylin receptor/CRE-luc CHO cells” value came to 0.017 nM.
